Data on 11 molecules can be found in patent US20240150490A1 (MABPRO A S, published 2024).

B1: CA9hu-1_HC4LC4 (antibody, V domains shown)
VH: EVQLVESGGGLVQPGGSLRLSCAASGFTFTDYYMHWVRQAPGRGLEWVAFIRNKASGYTPQYSASVKGRFTISRDNAENSLYLQMNSLRAEDTAVYYCVRGGHAGSNYWYFDVWGKGTTVTVSS
VL: DIQMTQSPSSLSASVGDRVTINCHVSQNINVWLSWYQQKPGEAPKLLIYQASNLHTGVPSRFSGSGSGTGFTLTIRSLQPEDYATYYCQQGQSYPFTFGQGTKLEIK
notes: Humanized from murine VII/20; also called HC4LC4 (CA9hu-1)
B2: CA9hu-1 chimeric HC0LC0 (antibody, V domains shown)
VH: EVKLVESGGGLVQPGGSLRLSCATSGFTFTDYYMHWVRQPPGMALEWLAFIRNKASGYTPQYSASVKGRFTISRDVSQTILYLQMNTLRPEDSATYYCVRGGHAGSNYWYFDVWGAGTTVTVSS
VL: DIQMNQSPSSLSASLGDTITIACHVSQNINVWLSWYQQKPGNIPKLLIYQASNLHTGVPSRFTGSGSGTGFTLTISSLQPEDIATYYCQQGQSYPFTFGSGTKLEIK
notes: also called HC0LC0 (CA9hu-1); chimeric variant
B3: CA9hu-1_HC4LC2 (antibody, V domains shown)
VH: B1 VH
VL: B1 VL with S10T, N22T, E42N, G70E, R76G, E81D, Y83F, A84V, L104V
notes: Humanized from murine VII/20; also called HC4LC2 (CA9hu-1)
B4: CA9hu-1_HC4LC1 (antibody, V domains shown)
VH: B1 VH
VL: B1 VL with N22T, E42K, K45N, G70H, R76S, Y83I, Q100G, L104V
notes: Humanized from murine VII/20; also called HC4LC1 (CA9hu-1)
B5: CA9hu-1_HC3LC1 (antibody, V domains shown)
VH: QVQLVQSGGGLVQPGRSLRLSCTASGFTFTDYYMHWVRQAPGKGLEWVGFIRNKASGYTPQYSASVKGRFTISRDDSKTIAYLQMNSLKTEDTAVYYCVRGGHAGSNYWYFDVWGQGTLVTVSS
VL: B1 VL with N22T, E42K, K45N, G70H, R76S, Y83I, Q100G, L104V
notes: Humanized from murine VII/20; also called HC3LC1 (CA9hu-1)
B6: CA9hu-1_HC3LC2 (antibody, V domains shown)
VH: B5 VH
VL: B1 VL with S10T, N22T, E42N, G70E, R76G, E81D, Y83F, A84V, L104V
notes: Humanized from murine VII/20; also called HC3LC2 (CA9hu-1)
B7: CA9hu-1_HC5LC2 (antibody, V domains shown)
VH: B5 VH with Q1E, Q6E, R16G, T23A, T79N, I80S, A81L, L119M
VL: B1 VL with S10T, N22T, E42N, G70E, R76G, E81D, Y83F, A84V, L104V
notes: Humanized from murine VII/20; also called HC5LC2 (CA9hu-1)
B8: CA9hu-1_HC4LC3 (antibody, V domains shown)
VH: B1 VH
VL: B1 VL with N22T, G70D, R76S, Y83F
notes: Humanized from murine VII/20; also called HC4LC3 (CA9hu-1)
B9: CA9hu-1_HC4LC5 (antibody, V domains shown)
VH: B1 VH
VL: B1 VL with N22T, E42K, G70D, L73F, R76S, Y83I
notes: Humanized from murine VII/20; also called HC4LC5 (CA9hu-1)
B10: CA9hu-1_HC5LC5 (antibody, V domains shown)
VH: B5 VH with Q1E, Q6E, R16G, T23A, T79N, I80S, A81L, L119M
VL: B1 VL with N22T, E42K, G70D, L73F, R76S, Y83I
notes: Humanized from murine VII/20; also called HC5LC5 (CA9hu-1)
B11: CA9hu-1_HC5LC4 (antibody, V domains shown)
VH: B5 VH with Q1E, Q6E, R16G, T23A, T79N, I80S, A81L, L119M
VL: B1 VL
notes: Humanized from murine VII/20; also called HC5LC4 (CA9hu-1)

Changes are numbered by the printed parent chain.

The target in one assay is CA IX expressed by cells (C-33a_CA IX transfectants; hypoxic BT-20, JIMT-1, 8-MG-BA and 42-MG-BA cells) (human, UniProt Q16790 38-459). Nature of the assay: cell-based or functional assay.
For the molecule B1, the “ADCC reporter activity, induction over no Ab, BT-20 cells” value was above 25 fold.

The next assay deals with recombinant human CA IX (human, UniProt Q16790 38-414). Nature of the assay: SPR (Biacore 2000), antibody captured on CM5 chip, rh CA IX in flow, 25 C. How it is done: In order to determinate the antigen-binding affinity of humanized variants, measurements of affinity constant (KD) for antibodies binding to CA IX were performed by SPR using a Biacore 2000 (T200 in case of CA9hu-2) instrument (GE Healthcare, Piscataway, NJ USA). Each humanized antibody variant was captured on the CM5 sensor chip and recombinant human CA IX (rh CA IX; 42 kDa; R&D Systems, Inc., Minneapolis MN, USA) protein as an antigen was added to the buffer flowing over the chip. The setting details of quantitative interaction analysis between humanized antibodies and rh CA IX were as follows: flow rate 30 μl/min; analysis temperature 25° C.; analysis buffer (10mM HEPES pH 7.4, 150 mM NaCl, […], 0.05% Tween 20). Results from SPR analysis are expressed as the equilibrium dissociation constant (KD) (Table 7).
For orientation: In SPR one partner is held on a chip, and binding of the other changes the refractive index at the surface.
For the molecule B2, the Kd – broadly, the concentration at which binding is half-saturated – amounted to 22 nM.

On to B1, for which the Kd was found to be 15.2 nM.

In the case of B3, the Kd is 9.1 nM.

Turning to B4, the Kd is 15.2 nM.

As to B5, the dissociation constant (Kd) worked out at 91 nM.

For the molecule B6, the Kd turned out to be 81 nM.

Consider B7, for which the Kd came to 52 nM.

As to B8, the equilibrium dissociation constant (Kd) came out at 10.7 nM.

For B9, the Kd was 12.3 nM.

On to B10, for which the Kd was 64 nM.

Consider B11, for which the Kd was 54 nM.
